Experimental data: doi:10.1101/758409

How the values were obtained:
[1] = molecular target: DDA1-DDB1ΔB-DCAF15Δpro triplex (human) (UniProt Q66K64); assay: ITC
[2] = molecular target: DDA1-DDB1ΔB-DCAF15Δpro triplex (human) (UniProt Q66K64); assay: BLI

RRM1-RRM2 domain of RBM39 (R1R2), sequence (Q14498 150-331): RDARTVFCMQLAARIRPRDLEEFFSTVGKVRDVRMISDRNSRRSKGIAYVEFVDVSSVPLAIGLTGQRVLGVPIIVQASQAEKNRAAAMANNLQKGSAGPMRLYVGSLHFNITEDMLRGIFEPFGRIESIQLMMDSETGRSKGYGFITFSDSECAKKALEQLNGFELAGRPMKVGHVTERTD

Kd [1] [µM] | Kd [2] [µM] | Substance
6.4 | 4.6 | RRM1-RRM2 domain of RBM39 (R1R2) (from UniProt Q14498 150-331) (domain or fragment)
– | 1.2 | R1R2(M265L) (from UniProt Q14498 150-331) (domain or fragment)
